Data set [1] has as its target CD45 (human (endogenous in Jurkat)) (UniProt P08575). The data set can be described thus: dSTORM localization statistics (number of localizations per cluster); live Jurkat T cells of large passage number labelled on ice with HI30-AF647, then fixed with 2% FA and 0.25% GA; TIRF on the basal membrane; DBSCAN clusters compared with theoretical monomer and dimer distributions.

Data set [2] concerns the molecule itself. The data set is described as follows: dSTORM localization statistics (number of localizations per cluster); Jurkat T cells labelled with FN50-AF647, live on ice or after PFA or FA fixation, independent of the passage number; DBSCAN clusters compared with theoretical monomer and dimer distributions.

These results are taken from paper PMC12871438, “Single-molecule localization microscopy reveals the molecular organization of endogenous membrane receptors” (Science Advances, 2026).

As a reminder, the stoichiometry N is a count of units in the complex or per binding partner.

“CD45 (from UniProt P08575 26-1306) (receptor)” yielded a stoichiometry N in data set [1] of 2.

B1: CD69 (receptor, human (endogenous in Jurkat), UniProt Q07108 1-199, looked up)
chain: MSSENCFVAENSSLHPESGQENDATSPHFSTRHEGSFQVPVLCAVMNVVFITILIIALIALSVGQYNCPGQYTFSMPSDSHVSSCSEDWVGYQRKCYFISTVKRSWTSAQNACSEHGATLAVIDSEKDMNFLKRYAGREEHWVGLKKEPGHPWKWSNGKEFNNWFNVTGSDKCVFLKNTEVSSMECEKNLYWICNKPYK
notes: CD69, endogenous in the plasma membrane of human Jurkat T cells; the introduction describes it as a phosphorylated disulfide-linked homodimer; Written as the protomer; the self-association row gives the dimer; Detected with the anti-CD69 antibody FN50-AF647; source: endogenous, on Jurkat T cells (Jurkat E6-1)
As for B1, in data set [2], the “stoichiometry N” value came out at 2.
